Test results published in patent US20250154283A1 (published 2025).

Legend:
[1] = target: human plasma-derived von Willebrand Factor (VWF)
[2] = target: T1, His-StrepTagII-HRV3C-cyno VWF-CK-HA-tag (cynomolgus monkey); assay: solution-phase equilibrium binding, unbound antibody by ELISA
T1 construct: also called recombinant cyno CK domain; cyno CK
T1 chain: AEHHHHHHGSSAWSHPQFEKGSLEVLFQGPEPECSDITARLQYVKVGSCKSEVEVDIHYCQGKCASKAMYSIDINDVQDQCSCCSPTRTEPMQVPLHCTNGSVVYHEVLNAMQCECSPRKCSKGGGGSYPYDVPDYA

[3] = target: T2, human plasma-derived von Willebrand Factor (VWF) (human, UniProt P04275 764-2813); assay: VWF:FVIIIB enzyme immunoassay, FVIII binding capacity of plasma VWF after incubation with 200 or 600 nM antibody; FVIII as the partner tested
T2 construct: also called pd-VWF; human plasma-derived VWF

Binder	VWF multimer distribution (LMW/IMW/HMW) after ristocetin, in the presence of 600 nM Lib1_P1_A6 OA [1]	VWF multimer distribution (LMW/IMW/HMW) after ristocetin, in the presence of 600 nM Lib1_P1_A9 OA [1]	fold change in Kd, cyno CK against human CK [2] [fold]	VWF:FVIII level (% of untreated donor-matched plasma) [3] [%]
ADAM Metallopeptidase With Thrombospondin Type 1 Motif 13 (ADAMTS13) (protein) AAGGILHLELLVAVGPDVFQAHQEDTERYVLTNLNIGAELLRDPSLGAQFRVHLVKMVILTEPEGAPNITANLTSSLLSVCGWSQTINPEDDTDPGHADLVLYITRFDLELPDGNRQVRGVTQLGGACSPTWSCLITEDTGFDLGVTIAHEIGHSFGLEHDGAPGSGCGPSGHVMASDGAAPRAGLAWSPCSRRQLLSLLSAGRARCVWDPPRPQPGSAGHPPDAQPGLYYSANEQCRVAFGPKAVACTFAREHLDMCQALSCHTDPLDQSSCSRLLVPLLDGTECGVEKWCSKGRCRSLVELTPIAAVHGRWSSWGPRSPCSRSCGGGVVTRRRQCNNPRPAFGGRACVGADLQAEMCNTQACEKTQLEFMSQQCARTDGQPLRSSPGGASFYHWGAAVPHSQGDALCRHMCRAIGESFIMKRGDSFLDGTRCMPSGPREDGTLSLCVSGSCRTFGCDGRMDSQQVWDRCQVCGGDNSTCSPRKGSFTAGRAREYVTFLTVTPNLTSVYIANHRPLFTHLAVRIGGRYVVAGKMSISPNTTYPSLLEDGRVEYRVALTEDRLPRLEEIRIWGPLQEDADIQVYRRYGEEYGNLTRPDITFTYFQPKPRQAWVWAAVRGPCSVSCGAGLRWVNYSCLDQARKELVETVQCQGSQQPPAWPEACVLEPCPPYWAVGDFGPCSASCGGGLRERPVRCVEAQGSLLKTLPPARCRAGAQQPAVALETCNPQPCPARWEVSEPSSCTSAGGAGLALENETCVPGADGLEAPVTEGPGSVDEKLPAPEPCVGMSCPPGWGHLDATSAGEKAPSPWGSIRTGAQAAHVWTPAAGSCSVSCGRGLMELRFLCMDSALRVPVQEELCGLASKPGSRREVCQAVPCPARWQYKLAACSVSCGRGVVRRILYCARAHGEDDGEEILLDTQCQGLPRPEPQEACSLEPCPPRWKVMSLGPCSASCGLGTARRSVACVQLDQGQDVEVDEAACAALVRPEASVPCLIADCTYRWHVGTWMECSVSCGDGIQRRRDTCLGPQAQAPVPADFCQHLPKPVTVRGCWAGPCVGQGTPSLVPHEEAAAPGRTTATPAGASLEWSQARGLLFSPAPQPRRLLPGPQENSVQSSACGRQHLEPTGTIDMRGPGQADCAVAIGRPLGEVVTLRVLESSLNCSAGDMLLLWGRLTWRKMCRKLLDMTFSSKTNTLVVRQRCGRPGGGVLLRYGSQLAPETFYRECDMQLFGPWGEIVSPSLSPATSNAGGCRLFINVAPHARIAIHALATNMGAGTEGANASYILIRDTHSLRTTAFHGQQVLYWESESSQAEMEFSEGFLKAQASLRGQYWTLQSWVPEMQDPQSWKGKEGT	The same shift in VWF multimer pattern was observed when plasma was treated with ristocetin in the presence of 600 nM antibody including Lib1_P1_A9 and Lib1_P1_A6	The same shift in VWF multimer pattern was observed when plasma was treated with ristocetin in the presence of 600 nM antibody including Lib1_P1_A9 and Lib1_P1_A6		
Lib1_P1_A6 OA (antibody, human IgG4 S228P, kappa, F234A L235A, monovalent one-arm human IgG4; also called monovalent (one-arm) Lib1_P1_A6) heavy: QVQLVQSGAEVKKPGASVKVSCKVSGSTFSNYAIHWVRQAPGKGLEWMGGIVPLSGTAIYAQKFQGRVTMTEDTSTDTAYMELSSLKSEDTAVYYCARDQGESSGWYAIYYGMDVWGQGTTVTVSSASTKGPSVFPLAPCSRSTSESTAALGCLVKDYFPEPVTVSWNSGALTSGVHTFPAVLQSSGLYSLSSVVTVPSSSLGTKTYTCNVDHKPSNTKVDKRVESKYGPPCPPCPAPEAAGGPSVFLFPPKPKDTLMISRTPEVTCVVVDVSQEDPEVQFNWYVDGVEVHNAKTKPREEQFNSTYRVVSVLTVLHQDWLNGKEYKCKVSNKGLPSSIEKTISKAKGQPREPQVYTLPPSQEEMTKNQVSLSCAVKGFYPSDIAVEWESNGQPENNYKTTPPVLDSDGSFFLVSRLTVDKSRWQEGNVFSCSVMHEALHNHYTQKSLSLSLG ESKYGPPCPPCPAPEAAGGPSVFLFPPKPKDTLMISRTPEVTCVVVDVSQEDPEVQFNWYVDGVEVHNAKTKPREEQFNSTYRVVSVLTVLHQDWLNGKEYKCKVSNKGLPSSIEKTISKAKGQPREPQVYTLPPSQEEMTKNQVSLWCLVKGFYPSDIAVEWESNGQPENNYKTTPPVLDSDGSFFLYSRLTVDKSRWQEGNVFSCSVMHEALHNHYTQKSLSLSLG light: DIQMTQSPSSVSASVGDRVTITCRASQGIGTWLAWYQQKPGKAPKLLIYGSSSRASGVPSRFSGSGSGTDFTLTISSLQPEDFANYYCQQSYGKPTFGGGTKVEIKRTVAAPSVFIFPPSDEQLKSGTASVVCLLNNFYPREAKVQWKVDNALQSGNSQESVTEQDSKDSTYSLSSTLTLSKADYEKHKVYACEVTHQGLSSPVTKSFNRGEC			< 2	> 80
